Experimental data as given in PMC5322768 (Developmental dynamics : an official publication of the …, 2016).

Tests used:
[1] = target: TMEM47-GFP (murine TMEM47 tagged with GFP) (murine) (UniProt Q9JJG6); test: co-IP
[2] = target: TMEM47-GFP (murine TMEM47 tagged with GFP) (murine, UniProt Q9JJG6 1-181); test: co-IP
TMEM47-GFP (murine TMEM47 tagged with GFP), sequence (Q9JJG6 whole entry): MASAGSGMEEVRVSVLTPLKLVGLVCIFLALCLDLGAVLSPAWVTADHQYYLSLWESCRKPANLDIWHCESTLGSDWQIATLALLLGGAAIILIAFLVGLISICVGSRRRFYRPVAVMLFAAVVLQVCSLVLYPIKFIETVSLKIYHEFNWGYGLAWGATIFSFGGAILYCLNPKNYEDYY

TMEM47-GFP (murine TMEM47 tagged with GFP) (murine), sequence (Q9JJG6 whole entry): as above

Row | precipitating fraction [1] | precipitating fraction [2] | Molecule
1 | < 5% | – | α-catenin (natural protein)
2 | – | < 5% | Par6B (natural protein, canine (endogenous in MDCK), UniProt A0A8I3PSX6 1-370, looked up) MNRSHRHGAGSGCLGTMEVKSKFGAEFRRFSLERSKPGKFEEFYGLLQHVHKIPNVDVLVGYADIHGDLLPINNDDNYHKAVSTANPLLRIFIQKKEEADYSAFGTDTLIKKKNVLTNVLRPDNHRKKPHIVISMPQDFRPVSSIIDVDILPETHRRVRLYKYGTEKPLGFYIRDGSSVRVTPHGLEKVPGIFISRLVPGGLAQSTGLLAVNDEVLEVNGIEVSGKSLDQVTDMMIANSRNLIITVRPANQRNNVVRNSRTSGSSGQSTDNSLLGYPQQVEPSFEPEDEDSDEDDIIIEDNGVPQQIPKAVPNTESFESLTQIELSFESGQNGFIPSNEVSLAPIASGTNTETRAPDQKLLEEDGTIITL
3 | – | < 5% | β-catenin (natural protein, canine (endogenous in MDCK), UniProt B6V8E6 1-781, looked up) MATQADLMELDMAMEPDRKAAVSHWQQQSYLDSGIHSGATTTAPSLSGKGNPEEEDVDTTQVLYEWEQGFSQSFTQEQVADIDGQYAMTRAQRVRAAMFPETLDEGMQIPSTQFDAAHPTNVQRLAEPSQMLKHAVVNLINYQDDAELATRAIPELTKLLNDEDQVVVNKAAVMVHQLSKKEASRHAIMRSPQMVSAIVRTMQNTNDVETARCTAGTLHNLSHHREGLLAIFKSGGIPALVKMLGSPVDSVLFYAITTLHNLLLHQEGAKMAVRLAGGLQKMVALLNKTNVKFLAITTDCLQILAYGNQESKLIILASGGPQALVNIMRTYTYEKLLWTTSRVLKVLSVCSSNKPAIVEAGGMQALGLHLTDPSQRLVQNCLWTLRNLSDAATKQEGMEGLLGTLVQLLGSDDINVVTCAAGILSNLTCNNYKNKMMVCQVGGIEALVRTVLRAGDREDITEPAICALRHLTSRHQEAEMAQNAVRLHYGLPVVVKLLHPPSHWPLIKATVGLIRNLALCPANHAPLREQGAIPRLVQLLVRAHQDTQRRTSMGGTQQQFVEGVRMEEIVEGCTGALHILARDVHNRIVIRGLNTIPLFVQLLYSPIENIQRVAAGVLCELAQDKEAAEAIEAEGATAPLTELLHSRNEGVATYAAAVLFRMSEDKPQDYKKRLSVELTSSLFRTEPMAWNETADLGLDIGAQGEPLGYRQDDPSYRSFHSGGYGQDALGMDPMMEHEMGGHHPGADYPVDGLPDLGHAQDLMDGLPPGDSNQLAWFDTDL
4 | – | < 5% | aPKCλ–myc (myc-tagged aPKCλ) (enzyme, murine, UniProt Q62074 1-595, looked up) MPTQRDSSTMSHTVACGGGGDHSHQVRVKAYYRGDIMITHFEPSISFEGLCSEVRDMCSFDNEQPFTMKWIDEEGDPCTVSSQLELEEAFRLYELNKDSELLIHVFPCVPERPGMPCPGEDKSIYRRGARRWRKLYCANGHTFQAKRFNRRAHCAICTDRIWGLGRQGYKCINCKLLVHKKCHKLVTIECGRHSLPPEPMMPMDQTMHPDHTQTVIPYNPSSHESLDQVGEEKEAMNTRESGKASSSLGLQDFDLLRVIGRGSYAKVLLVRLKKTDRIYAMKVVKKELVNDDEDIDWVQTEKHVFEQASNHPFLVGLHSCFQTESRLFFVIEYVNGGDLMFHMQRQRKLPEEHARFYSAEISLALNYLHERGIIYRDLKLDNVLLDSEGHIKLTDYGMCKEGLRPGDTTSTFCGTPNYIAPEILRGEDYGFSVDWWALGVLMFEMMAGRSPFDIVGSSDNPDQNTEDYLFQVILEKQIRIPRSLSVKAASVLKSFLNKDPKERLGCHPQTGFADIQGHPFFRNVDWDMMEQKQVVPPFKPNISGEFGLDNFDSQFTNEPVQLTPDDDDIVRKIDQSEFEGFEYINPLLMSAEECV
